Data on eight molecules can be found in paper PMC11046469, “Leveraging a Phage-Encoded Noncanonical Amino Acid: A Novel Pathway to Potent and Selective Epigenetic Reader Protein Inhibitors” (ACS Central Science, 2024).

Read-outs that look alike come from different tables or passages of the source. Where a SMILES comes first, the peptide text is derived from it. Where no end group is shown, it is not given here. The star is where a group is joined. Oxazole(5-CO) = O=C(c1cnco1)*; Crotonyl(E) = C/C=C/C(=O)*; 2Furoyl = O=C(c1ccco1)*; Butyryl = CCCC(=O)* Bounds are passed on as bounds.

Assay [1] deals with T1, ENL YEATS domain (His-ENL) (Homo sapiens, UniProt Q03111).
T1 construct: (aa 1−148) was cloned in pET19b; made in house; host or cells: E. coli BL21(DE3pLysS)
T1 sequence (Q03111 1-148): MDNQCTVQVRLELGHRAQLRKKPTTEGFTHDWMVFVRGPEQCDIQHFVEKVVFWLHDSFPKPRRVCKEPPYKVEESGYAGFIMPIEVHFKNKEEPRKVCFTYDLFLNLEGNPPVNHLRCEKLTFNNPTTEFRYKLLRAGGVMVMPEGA
As to the kind of experiment: Biolayer interferometry (BLI) binding to ENL YEATS. Particulars: ratio KD,AF9 / KD,ENL. The source says: To test the inhibition potency of the two selected peptides for the ENL YEATS domain, ENL-S1 and ENL-S2 were chemically synthesized through solid-phase peptide synthesis (SPPS) and evaluated by an AlphaScreen assay. In this assay, a biotinylated H3K27cr peptide and a 6xHis-tagged ENL YEATS domain (His-ENL YEATS) were immobilized on PerkinElmer streptavidin donor and nickel-chelating (Ni-NTA) acceptor beads, respectively. The use of a His-ENL YEATS instead of the original AviSUMO-ENL YEATS construct in the assay prevents potential false positive results derived from ligands which bind to the SUMO protein but not to the ENL YEATS domain. […] We then assessed the binding affinity of two ligands for the ENL YEATS domain using biolayer interferometry (BLI). Briefly, His-ENL was immobilized onto Ni-NTA functionalized biosensors to measure the binding kinetics of target peptides at different concentrations. […] As a small peptide directly selected from a phage display library, this level of high potency was unexpected. […] However, shorter-than-10-mer linear peptides with nanomolar binding potency have rarely been directly selected from phage display libraries. One example was S2P03, a 7-mer peptide that has a KD value as 49 ± 9 nM to bind to SIRT2.[10] This peptide contained BuK and was identified also from a BuK-containing phage display library using the active site-directed ligand selection technique. Taken together, the two examples confirmed that utilizing phage display libraries incorporated with a ncAA serving as a ligand for a protein target for active site-directed ligand selection is a successful method for identifying ultrahigh potency ligands for epigenetic proteins including both enzymes and readers. For ENL-S1 and ENL-S2, their determined kon and koff values were 6.23 ± 0.07 × 10^4 M^–1 s^–1, […] and […], 5.54 ± 0.02 × 10^–3 s^–1, respectively. Compared to ENL-S2, ENL-S1 has faster binding to the ENL YEATS domain and slower release from it, indicating its potential long-term action on the ENL YEATS inhibition. […]
Biolayer Interferometry to Validate ENL Ligands:
His-ENL, His-AF9 (aa 1-149, EpiCypher), His-GAS41 (aa 15-160, EpiCypher), and YEATS2-His (aa 200-345, EpiCypher) were reconstituted in water and diluted into assay buffer (20mM Tris, 300 mM NaCl, pH 7.9) for immobilization onto Octet Ni-NTA biosensors (Sartorius). Lyophilized peptides were dissolved in DMF and diluted to designated concentrations in assay buffer. Biolayer interferometry assays were performed in 96 well plates (GreinerBio-One, polypropylene, flat-bottom) using an Octet Red96 System (Sartorius). Wells were filled with 200 μL of assay buffer, blocking buffer (assay buffer + 0.1% BSA), protein solution, peptide solution, regeneration solution, and reload solution. For immobilization, His-tagged proteins were immobilized onto Ni-NTA sensors at 20 for 600 s. Sensors were then dipped into blocking buffer for 180 s, assay […] buffer for 300 s, peptide solution for 300 s, and back to assay buffer for 300 s. If multiple samples were tested, Ni-NTA sensors can be reconditioned in regeneration (10 mM glycine, pH 1.7) solution followed by reload solution (10 mM NiCl2) for 30 and 60 s, respectively. Measurements were carried out at 30 °C. Data were analyzed within the ForteBio Data Analysis software. Data were processed by double subtracting ligand only and protein only reference wells and aligning the data to the beginning of the association. Then, global kinetic fit was performed for all sensogram curves with a 1:1 model. Steady state KD values were reported.
AlphaScreen Assay with Biotinylated-ENL-S1:
The AlphaScreen assay was carried out in 384-well plates. Manual assay setup was performed in a 40 uL reaction buffer (50 mM HEPES pH 7.4, 100 mM NaCl, 0.1% bovine serum albumin, and 0.05% CHAPS). 10 µL of varying concentrations of His-ENL YEATS (0-300 nM) and 10 µL of […]
On the technique in general: In BLI a coated tip is dipped into the sample, and binding shifts an interference pattern.

Assay [2] deals with T2, NanoLuc-ENL YEATS expressed in HEK293T cells (Homo sapiens, UniProt Q03111).
T2 construct: The complementary DNA encoding ENL YEATS (aa 1-148) was cloned into pCDH-EF1-Nluc; expressed in transfected cells
T2 sequence (Q03111 1-148): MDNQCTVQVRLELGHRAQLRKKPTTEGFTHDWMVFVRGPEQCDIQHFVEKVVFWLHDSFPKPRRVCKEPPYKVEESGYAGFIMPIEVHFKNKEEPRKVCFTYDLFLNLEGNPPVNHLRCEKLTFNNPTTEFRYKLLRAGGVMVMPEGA
Briefly: ENL-NanoBRET cellular target engagement assay with tracer SR-0813T. The assay is classed as cell-based. The source says:
For peptides developed for intracellular targets, a common concern is their cellular permeability to engage the targets. For the ENL YEATS domain that is a nuclear protein, its inhibitors will also need to translocate to the nucleus to exert their inhibition activities. […] We attached FITC to tENL-S1o to afford FITC-tENL-S1o that could be fluorescently imaged. […] Although results from this pilot study were very encouraging, the conjugated FITC could have assisted the cellular penetration process. A more accurate assay was needed for the use of unmodified peptides. In light of this, we proceeded to use a NanoBRET assay to evaluate whether our developed peptides could permeate into cells and engage the ENL YEATS domain in the cellular melieu.[46] The NanoBRET assay is an emerging cutting-edge technique that is robust and sensitive in assessing not just cellular permeability of a developed ligand but also the ligand engagement with its protein target in the cellular environment. A significant advantage of the NanoBRET assay over the fluorophore conjugation and other approaches is allowing intact ligands to be used. […] There are three components required to gauge the peptide inhibitory potency for ENL expressed in cells through NanoBRET assays: (1) an ENL YEATS-NanoLuc luciferase fusion protein, (2) a NanoLuc luciferase substrate, and (3) a fluorescent tracer that binds specifically and reversibly to the reader channel of ENL YEATS. […] The cellular potency of peptides can be determined through the decrease in BRET as test peptides engage the ENL YEATS domain and displace the tracer. […]
Meanwhile, we established a stable cell line for NanoLuc-ENL YEATS expression. The binding of SR-0813T to […] was also validated using a fluorescence polarization assay (Figure S16).
Using the developed ENL-NanoBRET assay, we then characterized the cellular potency of our developed peptidyl inhibitors. […] The apparent intracellular affinity of tENL-S1f was further evaluated by NanoBRET at various tracer concentrations (Figure 5D). […]
Fluorescence microscopy study with FITC-6AHX-tENL-S1o: […]

Assay [3] deals with T3, 6xHis-tagged ENL YEATS domain, Q03111.
T3 chain: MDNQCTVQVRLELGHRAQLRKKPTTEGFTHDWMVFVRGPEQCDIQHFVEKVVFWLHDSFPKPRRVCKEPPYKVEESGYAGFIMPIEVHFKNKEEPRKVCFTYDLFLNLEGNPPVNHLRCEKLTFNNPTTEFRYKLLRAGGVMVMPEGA
Briefly: AlphaScreen. The conditions noted are these: chain shown with the change; n = 3; parent: 62.6 nM. A general note: In Alpha technology, singlet oxygen from a donor bead excites a nearby acceptor bead.

The target in assay [4] is T4, 6xHis-tagged ENL YEATS domain (human, UniProt Q03111 1-148).
T4 chain: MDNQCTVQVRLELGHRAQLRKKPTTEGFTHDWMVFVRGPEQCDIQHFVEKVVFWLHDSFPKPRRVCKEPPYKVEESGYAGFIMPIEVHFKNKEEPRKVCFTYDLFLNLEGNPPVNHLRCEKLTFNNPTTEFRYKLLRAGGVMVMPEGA
Briefly: AlphaScreen or HTRF; competition: biotinylated H3K27cr peptide on streptavidin donor beads, His-ENL YEATS on nickel-chelating (Ni-NTA) acceptor beads; test peptide varied; n = 3.

The target in assay [5] is T5, AF9 YEATS domain (human, UniProt P42568 1-138).
T5 chain: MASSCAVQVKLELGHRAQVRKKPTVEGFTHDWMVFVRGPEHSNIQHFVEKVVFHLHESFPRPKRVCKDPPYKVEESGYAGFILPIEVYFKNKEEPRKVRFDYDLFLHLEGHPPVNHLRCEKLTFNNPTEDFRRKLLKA

Assay [6] deals with T5, AF9 YEATS domain. As to the kind of experiment: AlphaScreen or HTRF; competition: AF9 YEATS and its corresponding acylated histone peptide; test peptide varied; n = 3.
Assay [7] concerns the target T4, 6xHis-tagged ENL YEATS domain.
Assay [8] has as its target T5, AF9 YEATS domain. As to the kind of experiment: BLI; His-ENL immobilised on Ni-NTA biosensors, peptides in solution at different concentrations (set-up told for ENL YEATS; the other YEATS domains were analysed 'similarly').
The target in assay [9] is T4, 6xHis-tagged ENL YEATS domain. Briefly: BLI.
The target in assay [10] is T5, AF9 YEATS domain. Briefly: BLI.
For assay [11], the target named is T4, 6xHis-tagged ENL YEATS domain. Briefly: BLI; His-ENL immobilised on Ni-NTA biosensors, peptides in solution at different concentrations (set-up told for ENL YEATS; the other YEATS domains were analysed 'similarly').

In general, IC50 refers to the midpoint of a concentration-inhibition curve. As usually defined, the Kd is the free concentration of one partner at which half of the binding sites on the other are occupied at equilibrium, for simple one-to-one binding. In general, kon refers to a measure of how fast the partners come together. High values mean faster complex formation, low ones slower complex formation.

As to `CC(=O)N[C@H](C(=O)N[C@@H](Cc1ccc(O)cc1)C(=O)N[C@@H](CS)C(=O)N[C@@H](Cc1ccc(O)cc1)C(=O)N[C@@H](CCCCNC(=O)c1ccco1)C(N)=O)C(C)C` [tENL-S1f] (Ac-VYCYK(2Furoyl)-NH2), in assay [1], the “Selectivity (ENL:AF9) from BLI KD values” is given as 12.0 fold. Also, the IC50 in assay [2] (0.5 μM SR-0813T tracer, read-out: NanoBRET IC50) amounted to 4100 ± 1100 nM; in assay [2] (1.0 μM SR-0813T tracer, read-out: NanoBRET IC50), 4200 ± 1100 nM; in assay [2] (2.5 μM SR-0813T tracer, read-out: NanoBRET IC50, displacement of SR-0813T from NanoLuc-ENL), 6400 ± 1600 nM.

B1: ENL-S1 Y1A (peptide)
chain: ADVYCYK
Take B1: in assay [3], the half-inhibitory concentration (IC50) was determined as 248 nM.

B2: ENL-S1f (peptide)
chain: YDVYCYK(2Furoyl)
In the case of B2, the figures for the half-maximal inhibitory concentration (IC50) (in [4]; with AF9 YEATS domain [5]) were 22 nM and 168 nM, respectively. Also, the fold lower potency (IC50) toward AF9 YEATS than toward ENL YEATS with AF9 YEATS domain [6] stood at 7.7 fold.

B3: ENL-S1o (peptide)
chain: YDVYCYK(Oxazole(5-CO))
With B3, the IC50 in assay [4] amounted to 10 nM; with AF9 YEATS domain [5] it was 231 nM. In the assay with AF9 YEATS domain [6], this molecule gave a fold lower potency (IC50) toward AF9 YEATS than toward ENL YEATS of 23 fold.

B4: ENL-S1 V3A (peptide)
chain: YDAYCYK
As for B4, the half-maximal inhibitory concentration (IC50) in [3] was more than 5000 nM.

B5: ENL-S1c (peptide)
chain: YDVYCYK(Crotonyl(E))
B5: the 50% inhibitory concentration (IC50) with AF9 YEATS domain [5] was determined as 347 nM. The fold lower potency (IC50) toward AF9 YEATS than toward ENL YEATS with AF9 YEATS domain [6] was determined as 18 fold.

B6: tENL-S1f (peptide)
chain: Ac-VYCYK(2Furoyl)
In [7], B6 yielded a decrease in qPCR of the ENL target genes HOXA9, MEIS1, MYB and MYC in MOLM-13 cells (endogenous ENL) treated with tENL-S1f at 10 and 50 μM of 30%; a growth of MV4;11 cells (MLL-r leukemia line sensitive to ENL depletion; endogenous ENL) treated with tENL-S1f for 14 days of 50%. The fold selectivity for ENL YEATS over AF9 in the assay with AF9 YEATS domain [8] is 12 fold. The molecule also had a Kd in assay [9] of 307 nM. The same molecule registered a Kd with AF9 YEATS domain [10] of 3670 nM.

B7: ENL-S1 (peptide)
chain: YDVYCYK(Butyryl)
In assay [11], B7 displayed a dissociation constant (Kd) of 36.3 nM. Also, the kon in [11] stood at 62300 M⁻¹ s⁻¹. Moreover, the figures for the IC50 (in assay [4]; with AF9 YEATS domain [5]) were 63 nM and 250 nM, respectively. In the assay with AF9 YEATS domain [6], this molecule came in with a fold lower potency (IC50) toward AF9 YEATS than toward ENL YEATS of 4 fold.
